# In patent US20260337282 (published 2026):
# Changes are numbered by the printed parent chain.
# T1: mouse CCR8 (mouse)
# T1 chain: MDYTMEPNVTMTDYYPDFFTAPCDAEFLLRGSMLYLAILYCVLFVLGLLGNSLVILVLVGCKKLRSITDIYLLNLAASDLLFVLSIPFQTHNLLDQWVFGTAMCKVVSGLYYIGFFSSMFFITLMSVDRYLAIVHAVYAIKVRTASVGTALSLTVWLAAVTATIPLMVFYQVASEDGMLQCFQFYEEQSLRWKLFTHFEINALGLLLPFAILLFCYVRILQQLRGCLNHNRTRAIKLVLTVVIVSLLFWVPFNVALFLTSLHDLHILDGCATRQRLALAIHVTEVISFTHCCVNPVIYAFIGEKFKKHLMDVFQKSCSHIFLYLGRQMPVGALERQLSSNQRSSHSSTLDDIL
# B1: 11F8-SG-11F8-DA (antibody, V domains shown)
# VH: QVQLVESGGGVVQPGRSLRLSCAASGFTFSTYVMHWVRQAPGKGLEWVAVISYSGNNKYYADSVKGRFIISRDNSKNTLFLQMNSLRGEDTAVYYCARGRSYVNYYGLDVWGQGTTVTVSS
# VL: DIVMTQTPLSLSVTPGQPASISCKSSQSLLYSDAKTYLYWYLQKPGQPPHLLIYEVSNRFSGVPKRFSGSGSGTDFTLKISRVEAEDVGVYYCMQSVKIPLTFGGGTKVEIK
# B2: 11F8-11F5 (antibody, V domains shown)
# VH: B1 VH with S54D
# VL: B1 VL with A34G, P45A, H50Q, K65D, Y91F, V97L, I99V, L101P, G105Q, E110D
# B3: 11B12-11F5 (antibody, V domains shown)
# VH: QVQLVESGGGVVQPGRSLRLSCAASGFSFSSYVMHWVRQAPGKGLEWVAVISYDGSDKYYADSVKGRFTISRDNSKNTLFLQMNSLRPEDTAVYYCARGRGYRYGQSYYYGMDVWGQGTTVTVSS
# VL: B1 VL with A34G, P45A, H50Q, K65D, Y91F, V97L, I99V, L101P, G105Q, E110D
# B4: 11F8-AG-11F8-DA (antibody, V domains shown)
# VH: B1 VH with S54A
# VL: B1 VL
# B5: 11B12-SG-11B12-AG (antibody, V domains shown)
# VH: B3 VH with D54S
# VL: B1 VL with D33A, A34G, H50Q, L51I, Y54F, K65D, V97I, I99L
# B6: 11F8-AG-11F8-SG (antibody, V domains shown)
# VH: B1 VH with S54A
# VL: B1 VL with D33S, A34G
# B7: 11F8-DA-11F8-DA (antibody, V domains shown)
# VH: B1 VH with S54D, G55A
# VL: B1 VL
# B8: 11B12-SG-11F8-SG (antibody, V domains shown)
# VH: B3 VH with D54S
# VL: B1 VL with D33S, A34G
# B9: 11B12-AG-11B12-SG (antibody, V domains shown)
# VH: B3 VH with D54A
# VL: B1 VL with D33S, A34G, H50Q, L51I, Y54F, K65D, V97I, I99L
# B10: 11F8-11B12 (antibody, V domains shown)
# VH: B1 VH with S54D
# VL: B1 VL with A34G, H50Q, L51I, Y54F, K65D, V97I, I99L
# B11: 11F5-DA-11F5-DA (antibody, V domains shown)
# VH: EVQLVESGGGVVQPGRSLRLSCAASGFTFSSYVVHWVRQAPGKGLEWVAVISYDADNKFYADSVKGRFTISRDNSKNTLYLQMNSLRTEDTAVYYCARGRNYYYYYGLDVWGQGTTVTVSS
# VL: B1 VL with P45A, H50Q, K65D, Y91F, V97L, I99V, L101P, G105Q, E110D
# B12: 11F5-11F8 (antibody, V domains shown)
# VH: B11 VH with A55G
# VL: B1 VL with A34G
# B13: 11B12-AG-11B12-DA (antibody, V domains shown)
# VH: B3 VH with D54A
# VL: B1 VL with H50Q, L51I, Y54F, K65D, V97I, I99L
# B14: 11B12-SG-11B12-DA (antibody, V domains shown)
# VH: B3 VH with D54S
# VL: B1 VL with H50Q, L51I, Y54F, K65D, V97I, I99L
# B15: 11F5-SG-11F5-DA (antibody, V domains shown)
# VH: B11 VH with D54S, A55G
# VL: B1 VL with P45A, H50Q, K65D, Y91F, V97L, I99V, L101P, G105Q, E110D
# B16: 11B12-SG-11B12-SG (antibody, V domains shown)
# VH: B3 VH with D54S
# VL: B1 VL with D33S, A34G, H50Q, L51I, Y54F, K65D, V97I, I99L
# B17: 11F8-AG-11F8-AG (antibody, V domains shown)
# VH: B1 VH with S54A
# VL: B1 VL with D33A, A34G
# B18: 11F5-11B12 (antibody, V domains shown)
# VH: B11 VH with A55G
# VL: B1 VL with A34G, H50Q, L51I, Y54F, K65D, V97I, I99L
# B19: 11F8-SG-11F8-AG (antibody, V domains shown)
# VH: B1 VH
# VL: B1 VL with D33A, A34G
# B20: 11B12-11F8-SG (antibody, V domains shown)
# VH: B3 VH
# VL: B1 VL with D33S, A34G
# B21: 11F5-SG-11F5-AG (antibody, V domains shown)
# VH: B11 VH with D54S, A55G
# VL: DIVMTQTPLSLSVTPGQPASISCKSSQSLLYSAGKTYLYWYLQKAGQPPQLLIYEVSNRFSGVPDRFSGSGSGTDFTLKISRVEAEDVGVFYCMQSLKVPPTFGQGTKVDIK
# B22: 11F5-DA-11F5-AG (antibody, V domains shown)
# VH: B11 VH
# VL: B21 VL
# B23: 11F8-SG-11F8-SG (antibody, V domains shown)
# VH: B1 VH
# VL: B1 VL with D33S, A34G
# B24: 11B12-11F8 (antibody, V domains shown)
# VH: B3 VH
# VL: B1 VL with A34G
# B25: 11B12-DNA-11B12 (antibody, V domains shown)
# VH: B3 VH with S75A
# VL: B1 VL with A34G, H50Q, L51I, Y54F, K65D, V97I, I99L
# B26: 11F8-DA-11F8-SG (antibody, V domains shown)
# VH: B1 VH with S54D, G55A
# VL: B1 VL with D33S, A34G
# B27: 11F8-DA-11F8-AG (antibody, V domains shown)
# VH: B1 VH with S54D, G55A
# VL: B1 VL with D33A, A34G
# B28: 11F5-DA-11F5-SG (antibody, V domains shown)
# VH: B11 VH
# VL: B21 VL with A33S
# Molecular target: T1, mouse CCR8
# Test: FACS
row,EC50,Binder
1,0.173 µg/mL,B1
2,0.116 µg/mL,B2
3,0.171 µg/mL,B3
4,0.171 µg/mL,B4
5,0.042 µg/mL,B5
6,0.149 µg/mL,B6
7,0.128 µg/mL,B7
8,0.099 µg/mL,B8
9,0.038 µg/mL,B9
10,0.155 µg/mL,B10
11,0.253 µg/mL,B11
12,0.184 µg/mL,B12
13,0.074 µg/mL,B13
14,0.059 µg/mL,B14
15,0.138 µg/mL,B15
16,0.041 µg/mL,B16
17,0.148 µg/mL,B17
18,0.163 µg/mL,B18
19,0.218 µg/mL,B19
20,0.12 µg/mL,B20
21,0.092 µg/mL,B21
22,0.463 µg/mL,B22

# Molecular target: T1, mouse CCR8
# Test: FACS
# Remark: another data set of the same source
row,EC50,Binder
1,0.053 µg/mL,B23
2,0.1 µg/mL,B24
3,0.084 µg/mL,B25

# Molecular target: human CCR8 (human)
# Sequence (chain, as listed by the source): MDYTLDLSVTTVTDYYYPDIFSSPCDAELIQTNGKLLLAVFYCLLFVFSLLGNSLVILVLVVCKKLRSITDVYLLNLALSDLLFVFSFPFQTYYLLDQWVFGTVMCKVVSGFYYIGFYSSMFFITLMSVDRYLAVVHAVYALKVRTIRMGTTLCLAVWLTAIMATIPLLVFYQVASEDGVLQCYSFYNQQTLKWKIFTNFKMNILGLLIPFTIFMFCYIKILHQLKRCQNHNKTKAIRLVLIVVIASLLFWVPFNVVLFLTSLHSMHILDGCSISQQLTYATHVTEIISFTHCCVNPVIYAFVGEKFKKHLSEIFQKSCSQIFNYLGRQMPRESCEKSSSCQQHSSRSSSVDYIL
# Test: FACS
row,EC50,Binder
1,0.049 µg/mL,B1
2,0.137 µg/mL,B2
3,0.298 µg/mL,B3
4,0.12 µg/mL,B4
5,0.154 µg/mL,B26
6,0.047 µg/mL,B5
7,0.222 µg/mL,B7
8,0.009 µg/mL,B8
9,0.043 µg/mL,B9
10,0.075 µg/mL,B10
11,0.392 µg/mL,B11
12,0.162 µg/mL,B12
13,0.073 µg/mL,B13
14,0.064 µg/mL,B14
15,0.15 µg/mL,B15
16,0.048 µg/mL,B16
17,0.076 µg/mL,B27
18,0.033 µg/mL,B17
19,0.132 µg/mL,B18
20,0.05 µg/mL,B19
21,0.165 µg/mL,B20
22,0.069 µg/mL,B21
23,0.124 µg/mL,B28

# Molecular target: human CCR8 (human)
# Test: FACS
# Remark: another data set of the same source
row,EC50,Binder
1,0.015 µg/mL,B23
2,0.152 µg/mL,B24
3,0.144 µg/mL,B25
